T1: GPC1-hFc (UniProt P35052 24-530, limits assumed)
T1 construct: not shown: human Fc tag (hFc)
T1 sequence (looked up): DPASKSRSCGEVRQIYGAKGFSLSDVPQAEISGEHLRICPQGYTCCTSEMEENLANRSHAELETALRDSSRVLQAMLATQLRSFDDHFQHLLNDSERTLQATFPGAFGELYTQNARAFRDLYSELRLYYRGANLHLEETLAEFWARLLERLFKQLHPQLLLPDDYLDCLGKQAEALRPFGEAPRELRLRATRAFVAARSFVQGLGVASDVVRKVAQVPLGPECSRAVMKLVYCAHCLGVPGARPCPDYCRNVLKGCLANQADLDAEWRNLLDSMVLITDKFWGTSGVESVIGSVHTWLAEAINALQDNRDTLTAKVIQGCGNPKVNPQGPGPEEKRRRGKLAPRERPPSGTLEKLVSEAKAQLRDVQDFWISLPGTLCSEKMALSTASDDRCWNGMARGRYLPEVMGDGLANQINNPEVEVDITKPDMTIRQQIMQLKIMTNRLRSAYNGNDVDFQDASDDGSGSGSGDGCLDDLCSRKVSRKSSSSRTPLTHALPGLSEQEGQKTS


Legend:
[1] = target: glypican-3 (GPC3) on HCC cell lines Hep3B, Huh7 and HepG2 (human, UniProt P51654 25-580); assay: cell-based or functional assay
GPC1-hFc = target: T1, GPC1-hFc; assay: flow cytometry, hFc-tagged protein on CAR-expressing Jurkat cells
Protocol: To test antigen specificity and cell binding capacity of the engineered GPC3-targeted CARs, T cell lines (Jurkat) transfected with the CAR constructs were developed and binding to GPC3 tagged with human Fc (GPC3-hFc) was assessed. First, successful transduction (95-98%) of all of the CAR constructs was confirmed using the truncated EGFR marker expressed by the CAR lentivirus. […] All CAR T cells specifically bound to GPC3-hFc (FIG. 1A) and not GPC1-hFc (FIG. 1B) at the same concentrations.

Sequence of glypican-3 (GPC3) on HCC cell lines Hep3B, Huh7 and HepG2 (P51654 25-580): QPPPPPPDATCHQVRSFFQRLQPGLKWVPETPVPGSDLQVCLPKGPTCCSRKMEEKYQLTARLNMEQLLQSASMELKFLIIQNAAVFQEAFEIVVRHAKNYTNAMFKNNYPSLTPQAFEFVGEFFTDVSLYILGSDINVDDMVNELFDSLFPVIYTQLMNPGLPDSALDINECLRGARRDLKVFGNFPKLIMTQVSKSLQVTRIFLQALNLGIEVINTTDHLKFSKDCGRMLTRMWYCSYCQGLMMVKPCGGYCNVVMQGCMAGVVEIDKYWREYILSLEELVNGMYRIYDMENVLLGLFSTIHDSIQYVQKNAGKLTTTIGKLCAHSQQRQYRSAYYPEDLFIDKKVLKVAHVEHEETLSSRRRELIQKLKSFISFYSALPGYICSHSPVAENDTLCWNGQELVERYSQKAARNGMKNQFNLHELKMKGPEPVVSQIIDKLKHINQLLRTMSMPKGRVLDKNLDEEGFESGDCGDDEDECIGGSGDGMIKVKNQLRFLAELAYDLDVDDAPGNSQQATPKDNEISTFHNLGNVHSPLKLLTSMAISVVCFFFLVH

| binding result (GPC1-hFc) | Binder | killing relative to HN3-CD8H-CD8TM CAR T cells [1] [%] | potency (killing) relative to HN3-CD8H-CD28TM [1] [%] |
| --- | --- | --- | --- |
| no binding (tested: 1, 2 and 5 µg/mL) | HN3-CD8H-CD28TM CAR (other) HMQVQLVQSGGGLVQPGGSLRLSCAASYFDFDSYEMSWVRQAPGKGLEWIGSIYHSGSTYYNPSLKSRVTISRDNSKNTLYLQMNTLRAEDTATYYCARVNMDRFDYWGQGTLVTVSSTSTTTPAPRPPTPAPTIASQPLSLRPEACRPAAGGAVHTRGLDFACDFWVLVVVGGVLACYSLLVTVAFIIFWVKRGRKKLLYIFKQPFMRPVQTTQEEDGCSCRFPEEEEGGCELRVKFSRSADAPAYQQGQNQLYNELNLGRREEYDVLDKRRGRDPEMGGKPRRKNPQEGLYNELQKDKMAEAYSEIGMKGERRRGKGHDGLYQGLSTATKDTYDALHMQALPPR | 40 |  |
| no binding (tested: 1, 2 and 5 µg/mL) | HN3-IgG4H-CD28TM CAR (other, also called HN3-IgG4-CD28TM; HN3-IgGH-CD28TM) HMQVQLVQSGGGLVQPGGSLRLSCAASYFDFDSYEMSWVRQAPGKGLEWIGSIYHSGSTYYNPSLKSRVTISRDNSKNTLYLQMNTLRAEDTATYYCARVNMDRFDYWGQGTLVTVSSTSESKYGPPCPPCPFWVLVVVGGVLACYSLLVTVAFIIFWVKRGRKKLLYIFKQPFMRPVQTTQEEDGCSCRFPEEEEGGCELRVKFSRSADAPAYQQGQNQLYNELNLGRREEYDVLDKRRGRDPEMGGKPRRKNPQEGLYNELQKDKMAEAYSEIGMKGERRRGKGHDGLYQGLSTATKDTYDALHMQALPPR |  | 10 to 20 |
| no binding (tested: 1, 2 and 5 µg/mL) | HN3-IgG4H-CD8TM CAR (other) HMQVQLVQSGGGLVQPGGSLRLSCAASYFDFDSYEMSWVRQAPGKGLEWIGSIYHSGSTYYNPSLKSRVTISRDNSKNTLYLQMNTLRAEDTATYYCARVNMDRFDYWGQGTLVTVSSTSESKYGPPCPPCPIYIWAPLAGTCGVLLLSLVITKRGRKKLLYIFKQPFMRPVQTTQEEDGCSCRFPEEEEGGCELRVKFSRSADAPAYQQGQNQLYNELNLGRREEYDVLDKRRGRDPEMGGKPRRKNPQEGLYNELQKDKMAEAYSEIGMKGERRRGKGHDGLYQGLSTATKDTYDALHMQALPPR |  |  |
| no binding (tested: 1, 2 and 5 µg/mL) | hYP7-CD8H-CD8TM CAR (other) HMEVQLVESGGGLVQPGGSLRLSCAASGFTFNKNAMNWVRQAPGKGLEWVGRIRNKTNNYATYYADSVKARFTISRDDSKNSLYLQMNSLKTEDTAVYYCVAGNSFAYWGQGTLVTVSAGGGGSGGGGSGGGGSDIVMTQSPDSLAVSLGERATINCKSSQSLLYSSNQKNYLAWYQQKPGQPPKLLIYWASSRESGVPDRFSGSGSGTDFTLTISSLQAEDVAVYYCQQYYNYPLTFGQGTKLEIKTSTTTPAPRPPTPAPTIASQPLSLRPEACRPAAGGAVHTRGLDFACDIYIWAPLAGTCGVLLLSLVITKRGRKKLLYIFKQPFMRPVQTTQEEDGCSCRFPEEEEGGCELRVKFSRSADAPAYQQGQNQLYNELNLGRREEYDVLDKRRGRDPEMGGKPRRKNPQEGLYNELQKDKMAEAYSEIGMKGERRRGKGHDGLYQGLSTATKDTYDALHMQALPPR |  |  |

— patent publication US20250017962A1 (US Dept. of Health and Human Services, published 2025)
